Laboratory results reported in US20080038273A1 (INSTITUT NATIONAL DE LA SANTE ET DE LA RECHERCHE MEDICALE …, published 2008).

Target: T1, Recombinant human CD28 (human, UniProt P10747 19-152, limits assumed)
T1 construct: also called CD28 molecule
Test: BIACORE, recombinant human CD28 immobilized
From the text: Recombinant human CD28 was immobilized on the biosensor (BIACORE) detector.

Ka: 2.86e+09 M⁻¹
Kd: 0.349 nM
B1: CD28.3 scFv/α1-antitrypsin fusion protein (other)
chain: DYKDIVKLQQSGAELVKPGASVRLSCKASGYTFTEYIIHWIKLRSGQGLEWIGWFYPGSNDIQYNAKFKGKATLTADKSSSTVYMELTGLTSEDSAVYFCARRDDFSGYDALPYWGQGTMVTVSSGGGGSGGGGSGGGGSDIQMTQSPASLSVSVGETVTITCRTNENIYSNLAWYQQKQGKSPQLLIYAATHLVEGVPSRFSGSGSGTQYSLKITSLQSEDFGNYYCQHFWGTPCTFGGGTKLEIKRTVAAPSEFNKITPNLAEFAFSLYRQLAHQSNSTNIFFSPVSIATAFAMLSLGTKADTHDEILEGLNFNLTEIPEAQIHEGFQELLRTLNQPDSQLQLTTGNGLFLSEGLKLVDKFLEDVKKLYHSEAFTVNFGDTEEAKKQINDYVEKGTQGKIVDLVKELDRDTVFALVNYIFFKGKWERPFEVKDTEEEDFHVDEVTTVKVPMMKRLGMFNIQHCKKLSSWVLLMKYLGNATAIFFLPDEGKLQHLENELTHDIITKFLENEDRRSASLHLPKLSITGTYDLKSVLGQLGITKVFSNGADLSGVTEEAPLKLSKAVHKAVLTIDEKGTEAAGAMFLEAIPMSIPPEVKFNKPFVFLMIEQNTKSPLFMGKVVNPTQKLEGEFEQKLISEEDLNHHHHH
notes: The pIG6 product would also carry DYKD at the N-terminus; not shown: c-myc marker and polyhistidine marker of the vector (pIG6 or pSECTagB)
